# According to paper PMC4686714:
# Molecular target: ENPP1-Fc fusion protein (not stated | not stated (human or mouse cDNA cloned)) (UniProt P22413)
# Assay: SEC-MALS; SEC-MALLS/UV/RI, Superose 6 10/30 HR column, PBSplus buffer, 0.3 ml/min; ENPP1-Fc at 100 nM to 1 uM measured at the apex of the eluting peak; three detector approach
substance,measurement,value
ENPP1-Fc fusion protein (from UniProt P22413 98-925),stoichiometry N,2
